According to publication PMC3635990, “Vpu Binds Directly to Tetherin and Displaces It from Nascent Virions” (PLoS Pathogens, 2013):

Biological target: the molecule itself
Assay: cross-linking; unfractionated whole cell lysates of the oxidised, co-transfected 293T cells of Figure 1B; non-reducing SDS-PAGE (Bio-Rad), Western blot; monomer to dimer

Protein	stoichiometry N
Tetherin^CC/SS-I46C-HA (natural protein, Tetherin (Bst2/CD317/HM1.24), human; also called TetherinI46C; Teth^CC/SS-I46C-HA; source: HEK293T, co-transfected, in cells and lysate) MASTSYDYSRVPMEDGDKRSKLLLGIGILVLLIIVILGVPLIIFTCKANSEACRDGLRAVMECRNVTHLLQQELTEAQKGFQDVEAQAATCNHTVMALMASLDAEKAQGQKKVEELEGEITTLNHKLQDASAEVERLRRENQVLSVRIADKKYYPSSQDSS	2
Tetherin^CC/SS-T45C-HA (natural protein, Tetherin (Bst2/CD317/HM1.24), human; also called TetherinT45C; source: HEK293T, co-transfected, in cells and lysate) MASTSYDYSRVPMEDGDKRSKLLLGIGILVLLIIVILGVPLIIFCIKANSEACRDGLRAVMECRNVTHLLQQELTEAQKGFQDVEAQAATCNHTVMALMASLDAEKAQGQKKVEELEGEITTLNHKLQDASAEVERLRRENQVLSVRIADKKYYPSSQDSS	2
